Assay results: article PMC8724787, “The epitope arrangement on flavivirus particles contributes to Mab C10’s extraordinary neutralization breadth across Zika and dengue viruses” (Cell, 2021)

T1: DENV4_Burma/63632/1976 sE protein (aa 1-395) (Dengue virus 4 (strain Burma/63632/1976))
T1 construct: also called DENV4 sE
T1 chain: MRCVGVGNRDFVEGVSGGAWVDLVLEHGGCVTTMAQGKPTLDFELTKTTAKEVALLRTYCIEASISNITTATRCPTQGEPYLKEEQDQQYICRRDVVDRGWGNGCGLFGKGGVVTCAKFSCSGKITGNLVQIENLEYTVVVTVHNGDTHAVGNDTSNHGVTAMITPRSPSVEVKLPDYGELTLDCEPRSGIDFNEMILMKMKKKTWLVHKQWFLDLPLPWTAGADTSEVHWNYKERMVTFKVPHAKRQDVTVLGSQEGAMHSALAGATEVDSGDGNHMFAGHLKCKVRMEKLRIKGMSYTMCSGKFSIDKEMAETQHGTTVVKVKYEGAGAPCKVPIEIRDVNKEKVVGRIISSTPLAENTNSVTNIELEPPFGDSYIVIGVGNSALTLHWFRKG


Columns and labels:
[1] = target: T2, ZIKV-H/PF/2013 sE protein (aa 1-404) (Zika virus (strain H/PF/2013)); assay: BLI
T2 construct: also called ZIKV sE; ZIKV (sE)2

[2] = target: T1, DENV4_Burma/63632/1976 sE protein (aa …); assay: crystal structure; settings: both partners purified
[3] = target: T2, ZIKV-H/PF/2013 sE protein (aa 1-404); assay: SEC-MALS; Superdex 200 10/300 GL; Tris 50 mM pH 8.0, NaCl 500 mM; about 150 ug protein; proteins alone and in complex; settings: both partners purified

Binder	stoichiometry N [3]	other results
K^L66A C10 mAb mutant (IgG1) (antibody, V domains shown, IgG1) VH: EVQLVESGAEVKKPGASVKVSCKASGYTFTSYAMHWVRQAPGQRLEWMGWINAGNGNTKYSQKFQDRVTITRDTSASTAYMELSSLRSEDTAIYYCARDKVDDYGDYWFPTLWYFDYWGQGTLVTVSS VL: QSALTQPASVSGSPGQSITISCTGTSSDVGGFNYVSWFQQHPGKAPKLMLYDVTSRPSGVSSRFSGSASGNTASLTISGLQAEDEADYYCSSHTSRGTWVFGGGTKLTVL	–	other [1]: 2 fold
C10 single-chain variable fragment (scFv) (scFv, V domains shown) VH: EVQLVESGAEVKKPGASVKVSCKASGYTFTSYAMHWVRQAPGQRLEWMGWINAGNGNTKYSQKFQDRVTITRDTSASTAYMELSSLRSEDTAIYYCARDKVDDYGDYWFPTLWYFDYWGQGTLVTVSS VL: QSALTQPASVSGSPGQSITISCTGTSSDVGGFNYVSWFQQHPGKAPKLMLYDVTSRPSGVSSRFSGSKSGNTASLTISGLQAEDEADYYCSSHTSRGTWVFGGGTKLTVL	–	binding result [2]: binds
C10 intact bivalent IgG1 (human monoclonal antibody EDE1 C10) (antibody, V domains shown) VH: EVQLVESGAEVKKPGASVKVSCKASGYTFTSYAMHWVRQAPGQRLEWMGWINAGNGNTKYSQKFQDRVTITRDTSASTAYMELSSLRSEDTAIYYCARDKVDDYGDYWFPTLWYFDYWGQGTLVTVSS VL: QSALTQPASVSGSPGQSITISCTGTSSDVGGFNYVSWFQQHPGKAPKLMLYDVTSRPSGVSSRFSGSKSGNTASLTISGLQAEDEADYYCSSHTSRGTWVFGGGTKLTVL	1 C10 molecule per sE dimer (2:2)	–
C10 bivalent F(ab')2 (other, human) VH: EVQLVESGAEVKKPGASVKVSCKASGYTFTSYAMHWVRQAPGQRLEWMGWINAGNGNTKYSQKFQDRVTITRDTSASTAYMELSSLRSEDTAIYYCARDKVDDYGDYWFPTLWYFDYWGQGTLVTVSS VL: QSALTQPASVSGSPGQSITISCTGTSSDVGGFNYVSWFQQHPGKAPKLMLYDVTSRPSGVSSRFSGSKSGNTASLTISGLQAEDEADYYCSSHTSRGTWVFGGGTKLTVL	1 C10 molecule per sE dimer (2:2)	–
